“Also recorded” adds a separate entry of the source. Ends that are not written are not given here. Peptide text beside a SMILES is read from it. * marks the point of attachment. Biotin = O=C1N[C@H]2[C@H](CS[C@H]2CCCCC(=O)*)N1
T1: MYC4 N-terminal domain (L55-N253; MYC4Nt) (Arabidopsis thaliana, UniProt O49687)
T1 construct: MYC4 N-terminal domain (L55-N253; MYC4Nt) using a C-terminal 6×His tag; made in house; host or cells: Escherichia coli BL21(DE3), pET52u plasmid
T1 sequence (O49687 55-253): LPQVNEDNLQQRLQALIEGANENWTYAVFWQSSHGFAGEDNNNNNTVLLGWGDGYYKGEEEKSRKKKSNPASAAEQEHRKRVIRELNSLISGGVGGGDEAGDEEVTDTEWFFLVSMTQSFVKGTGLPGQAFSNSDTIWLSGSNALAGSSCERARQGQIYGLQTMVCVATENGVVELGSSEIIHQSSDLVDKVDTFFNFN

T2: MYC4 N-terminal domain (L55-N253) (Arabidopsis thaliana, UniProt O49687 55-253)
T2 chain: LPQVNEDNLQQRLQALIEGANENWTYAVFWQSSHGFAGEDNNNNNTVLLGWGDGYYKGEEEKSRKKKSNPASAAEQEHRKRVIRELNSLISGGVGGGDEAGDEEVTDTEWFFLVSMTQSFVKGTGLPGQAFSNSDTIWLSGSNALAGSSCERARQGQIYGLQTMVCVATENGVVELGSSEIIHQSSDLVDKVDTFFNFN


Key:
[1] = target: T1, MYC4 N-terminal domain (L55-N253; MYC4Nt); assay: Bio-layer interferometry, binding of MYC4Nt to immobilised biotinylated MIM peptides; details: for binding of MYC4Nt to immobilised peptide (in words): BLI, peptide immobilised on streptavidin biosensor, MYC4Nt dilution series
Protocol: Single colonies of freshly transformed Escherichia coli BL21(DE3), carrying the pET52u plasmid for expressing MYC4 N-terminal domain (AA55-253; MYC4Nt) with a C-terminal 6×His tag, were inoculated in LB with ampicillin and grown overnight (37°C, 200 RPM). The next day, the culture was diluted to OD600 = 0.2 with cold (4°C) LB with ampicillin and grown at 18°C (100 RPM) in a baffled Erlenmeyer flask until OD600 = 1.0 (∼7.5 h). Protein expression was induced by addition of 0.1 mM IPTG, and the cultures grew for further 18 h at 18°C (100 RPM), before harvesting the cells by centrifugation (4000 g, 20 min), and storing the bacterial pellet at −20°C until protein extraction and purification. For extraction and purification, the bacterial pellet was resuspended in BugBuster Master Mix (Merck Millipore), 2.5 ml per 50 ml bacterial culture, containing 1× ethylenediaminetetraacetic acid-free complete protease inhibitor cocktail (Roche) and 1 mM dithiothreitol (DTT). Lysis proceeded by slow end-over-end rotation at room temperature for 30 min, and the lysate was cleared by centrifugation (20.000 g, 20 min, 4°C). The supernatant was diluted five times with His binding buffer (20 mM sodium phosphate, 500 mM NaCl, 40 mM imidazole, 1 mM DTT, pH 7.4) and filtered through a 0.2-micron filter using a syringe, before applying to a HisTrap HP 5 ml (GE Healthcare) IMAC column charged with Ni(II)Cl2. After washing thoroughly, bound protein was eluted with a linear buffer gradient to elution buffer (His binding buffer with 500 mM imidazole) over 20 column volumes, and 1.9 ml fractions collected in a 96-deepwell plate. Based on absorbance at 280 nm during elution, fractions were selected for analysis by sodium dodecyl sulphate-polyacrylamide gel electrophoresis and those fractions showing only the band of the recombinant protein at 22.7 kDa were pooled and concentrated using 3-kDa cut-off PES membrane ultrafiltration centrifugal tubes (Thermo Scientific™ Pierce). Concentrated protein was centrifuged at 20 000 g, 4°C for 10 min before being dialysed overnight to PBS pH 7.4 with 1 mM DTT. Protein concentration was estimated using the Lambert–Beer law based on absorbance at 280 nm, after blanking with the dialysis buffer (dialysate) and protein was stored in aliquots at −80°C. Aliquots of dialysate were stored at −20°C.
Biotinylated peptides were synthesized by TAG Copenhagen A/S (Copenhagen, Denmark). Lyophilized peptide was resuspended in H2O to a concentration of 400–500 μM and stored in aliquots at −80°C. […] Binding was measured with a BLItz Bio-Layer Interferometer (Pall ForteBio) using the advanced kinetics program in the BLItz Pro 1.2 software. […]

GL3 = assay: Split-ubiquitin assay, GL3 as bait; format: cell-based, Arabidopsis thaliana; details: yeast, SD-AHLW growth
Protocol: (§1) The rapamycin-compatible yeast strain NMY51 TOR1-1 Δfpr1 ([35]) was transformed according to DUALhunter™ kit instructions (Dualsystems biotech). Briefly, overnight 2×YPAD cultures were diluted to OD600 = 0.2, and incubated at 30°C, 150 RPM for 4–6 h in 2×YPAD, before harvesting the cells by centrifugation at 700 g for 5 min. The cells were washed with H2O, then 0.1 M LiOAc, before resuspending in 0.1 M LiOAc with 15% glycerol. The competent cells were then aliquoted and stored at −80°C until transformation. For double transformation with bait and prey plasmids, competent cells were thawed on ice, and mixed with transformation mix (240 μl 50% PEG-3350, 35 μl 1 M LiOAc and 25 μl 2 mg/ml ssDNA per transformation) and 200 ng of each plasmid, before being exposed to a 42°C heat shock in a water bath for 45 min. The cells were then chilled on ice for a few minutes, sedimented by centrifugation (3000 g, 1 min), resuspended in sterile H2O, plated on SD-LW plates and grown at 30°C for 2–3 days.
(§2) For drop tests, cells from three individual colonies of each bait/prey combination were grown overnight in liquid SD-LW media. Next day, culture densities were normalized to OD600 = 0.05, dilution series (OD600 = 0.05, OD600 = 0.005, OD600 = 0.0005 and OD600 = 0.00005) were spotted on square plates (SD-LW, SD-AHLW and SD-AHLW+Rapa) and grown for 2 days at 30°C before taking pictures.
(§3) To identify interaction sites mediating specific MYB–MYC complex formation, we selected two TFs from each family. These were MYB28 and MYB29 from MYB subgroup 12, and two of their partner bHLH TFs, MYC3 and MYC4. To define the region mediating the interactions we applied a chemically inducible dimerization split-ubiquitin system ([35]). […] This is used as an in-built positive control for correct expression and functionality of the prey fusion protein and thereby reduces the incidence of false negatives.

MYC3 = assay: Split-ubiquitin assay, MYC3 as bait; format: cell-based, Arabidopsis thaliana; details: yeast, SD-AHLW growth
Protocol: as §1, §2, §3

MYC4 = assay: Split-ubiquitin assay, MYC4 as bait; format: cell-based, Arabidopsis thaliana; details: yeast, SD-AHLW growth
Protocol: as §1, §2, §3

[2] = target: T2, MYC4 N-terminal domain (L55-N253); assay: BLI

Molecule | binding of MYC4Nt to immobilised peptide (in words) [1] | interaction with MYC3 (in words) (MYC3) | interaction with MYC4 (in words) (MYC4) | further results
CSCC[C@H](NC(=O)[C@H](CO)NC(=O)[C@H](CO)NC(=O)[C@H](C)NC(=O)[C@H](CCCNC(=N)N)NC(=O)[C@H](C)NC(=O)[C@H](C)NC(=O)[C@@H](NC(=O)[C@H](CCCCN)NC(=O)[C@H](CC(N)=O)NC(=O)[C@@H](NC(=O)[C@H](CC(C)C)NC(=O)[C@H](CCCCN)NC(=O)[C@H](CO)NC(=O)[C@@H](NC(=O)[C@H](CO)NC(=O)[C@H](CO)NC(=O)[C@H](CO)NC(=O)[C@H](CCCNC(=N)N)NC(=O)[C@H](CCCCN)NC(=O)[C@H](Cc1ccccc1)NC(=O)CCCC[C@@H]1SC[C@@H]2NC(=O)N[C@@H]21)[C@@H](C)O)C(C)C)C(C)C)C(=O)NCC(=O)O [L190V-MIM] (Biotin-FKRSSSTSKLVNKVAARASSMG-OH) | a strong binding signal, but at higher concentrations of MYC4Nt (>10 μM), than was necessary for the WT-MIM | – | – | affinity for MYC4Nt weaker than WT-MIM peptide ([1]; estimated, relative to WT-MIM peptide): ~10 fold
CSCC[C@H](NC(=O)[C@H](CO)NC(=O)[C@H](CO)NC(=O)[C@H](C)NC(=O)[C@H](CCCNC(=N)N)NC(=O)[C@H](C)NC(=O)[C@H](C)NC(=O)[C@@H](NC(=O)[C@H](CCCCN)NC(=O)[C@H](CC(N)=O)NC(=O)[C@H](CC(C)C)NC(=O)[C@H](CC(C)C)NC(=O)[C@H](CCCCN)NC(=O)[C@H](CO)NC(=O)[C@@H](NC(=O)[C@H](CO)NC(=O)[C@H](CO)NC(=O)[C@H](CO)NC(=O)[C@H](CCCNC(=N)N)NC(=O)[C@H](CCCCN)NC(=O)[C@H](Cc1ccccc1)NC(=O)CCCC[C@@H]1SC[C@@H]2NC(=O)N[C@@H]21)[C@@H](C)O)C(C)C)C(=O)NCC(=O)O [WT-MIM] (Biotin-FKRSSSTSKLLNKVAARASSMG-OH) | binding of MYC4Nt was observed even at sub micro molar concentrations; also recorded: stronger binding of the WT-MIM peptide compared to that of the L190V-MIM peptide | – | – | –
L190A-MIM: N-terminally biotinylated 22-residue peptide comprising the L190A MIM sequence of MYB29 (F180-G201) (Biotin-FKRSSSTSKLANKVAARASSMG) | Fit cannot converge; also recorded: an extremely weak response was seen only at high (>100 μM) concentrations of MYC4Nt; also recorded: the fit did not converge; also recorded: unable to detect binding | – | – | –
MYB75: full-length MYB75 (MYB subgroup 6), control prey for GL3 (protein, left off: NubG and FRB (from the vector pFRB), end not stated, kept, full-length MYB75 (MYB subgroup 6), control prey for GL3) MEGSSKGLRKGAWTTEEDSLLRQCINKYGEGKWHQVPVRAGLNRCRKSCRLRWLNYLKPSIKRGKLSSDEVDLLLRLHRLLGNRWSLIAGRLPGRTANDVKNYWNTHLSKKHEPCCKIKMKKRDITPIPTTPALKNNVYKPRPRSFTVNNDCNHLNAPPKVDVNPPCLGLNINNVCDNSIIYNKDKKKDQLVNNLIDGDNMWLEKFLEESQEVDILVPEATTTEKGDTLAFDVDQLWSLFDGETVKFD | – | – | – | interaction with GL3 (in words) (GL3): results in growth on SD-AHLW plates
L190A: mutated MYB29 (AAs 120-222); MIM sequence - S TS KL ANK VA ARA SS - (protein, left off: NubG and FRB (from the vector pFRB), end not stated, kept) GIDPVTHKPLAYDSNPDEQSQSGSISPKSLPPSSSKNVPEITSSDETPKYDASLSSKKRCFKRSSSTSKLANKVAARASSMGTILGASIEGTLISSTPLSSCL | – | abolished the interaction | abolished the interaction | –
N191A: mutated MYB29 (AAs 120-222); MIM sequence - S TS KL LAK VA ARA SS - (protein, left off: NubG and FRB (from the vector pFRB), end not stated, kept) GIDPVTHKPLAYDSNPDEQSQSGSISPKSLPPSSSKNVPEITSSDETPKYDASLSSKKRCFKRSSSTSKLLAKVAARASSMGTILGASIEGTLISSTPLSSCL | – | abolished the interaction | abolished the interaction | –
A194L: mutated MYB29 (AAs 120-222); MIM sequence - S TS KL LNK VL ARA SS - (protein, left off: NubG and FRB (from the vector pFRB), end not stated, kept) GIDPVTHKPLAYDSNPDEQSQSGSISPKSLPPSSSKNVPEITSSDETPKYDASLSSKKRCFKRSSSTSKLLNKVLARASSMGTILGASIEGTLISSTPLSSCL | – | abolished the interaction with both MYC3 and MYC4 | abolished the interaction with both MYC3 and MYC4 | –
A194G: mutated MYB29 (AAs 120-222); MIM sequence - S TS KL LNK VG A RA SS - (protein, left off: NubG and FRB (from the vector pFRB), end not stated, kept) GIDPVTHKPLAYDSNPDEQSQSGSISPKSLPPSSSKNVPEITSSDETPKYDASLSSKKRCFKRSSSTSKLLNKVGARASSMGTILGASIEGTLISSTPLSSCL | – | did not abolish the interaction | did not abolish the interaction | –
Biotin-FKRSSSTSKLVNKVAARASSMG [L190V-MIM peptide (F180-G201 of MYB29, L190V)] | – | – | – | Kd [2]: 33 µM

From PMC6765112, “Specificity of MYB interactions relies on motifs in ordered and disordered contexts” (Nucleic Acids Research, 2019)
